How the values were obtained:
[1] = target: T1, soluble human hemojuvelin with a HIS-tag (HJV.His) (human, UniProt Q6ZVN8 36-400, limits assumed); test: SPR (Biacore), human BMP6 amine-coupled on CM5 chip, one-site univalent fit model; monomeric HJV.His; one-site univalent fit
T1 construct: also called monomeric HJV.His; not shown: HIS-tag
T1 sequence (looked up): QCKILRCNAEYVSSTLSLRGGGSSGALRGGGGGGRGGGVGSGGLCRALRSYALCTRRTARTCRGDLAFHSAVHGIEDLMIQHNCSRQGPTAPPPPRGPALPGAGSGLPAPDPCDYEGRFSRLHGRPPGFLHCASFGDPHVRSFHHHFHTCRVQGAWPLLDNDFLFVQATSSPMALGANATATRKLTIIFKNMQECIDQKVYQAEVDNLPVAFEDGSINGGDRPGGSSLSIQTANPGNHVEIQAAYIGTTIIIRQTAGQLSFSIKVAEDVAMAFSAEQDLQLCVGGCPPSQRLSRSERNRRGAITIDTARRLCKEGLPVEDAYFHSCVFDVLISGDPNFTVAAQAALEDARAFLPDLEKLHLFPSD

[2] = target: T1, soluble human hemojuvelin with a …; test: Biacore SPR, HJV.His in solution over human BMP6 immobilized on a CM5 chip by amine coupling; 1:1 binding fit (Chi2 9.32 printed beside it)

Kd [1]: ~33 nM | Kd [2]: 36 nM
B1: human BMP6 (ligand, UniProt P22004 382-513, looked up)
chain: QQSRNRSTQSQDVARVSSASDYNSSELKTACRKHELYVSFQDLGWQDWIIAPKGYAANYCDGECSFPLNAHMNATNHAIVQTLVHLMNPEYVPKPCCAPTKLNAISVLYFDDNSNVILKKYRNMVVRACGCH
notes: also called bone morphogenic protein-6

Source: patent US20140199302A1 (GENERAL HOSPITAL, published 2014)
